# Measured values: patent publication US10105442B2, “Treatment of diabetes type 1 using GLP-1 and anti-IL-21” (Novo Nordisk A/S, priority 2014, dated 2018)
# What was measured:
# mIL-21 = target: T1, mIL-21 (Mus musculus, UniProt Q9ES17); experiment: Inhibition of IL-21-driven B cell proliferation (Assay IV); type: cell-based; settings: mouse B cells stimulated with anti-IgM, anti-CD40 and rmIL-21, 72 h, 3H-thymidine incorporation
# T1 construct: purchased
# Method: Assay (IV): Inhibition of IL-21-Driven B Cell Proliferation.
# As a functionality test, anti-mIL-21 is tested for its ability to neutralize mIL-21-driven B cell proliferation. Equivalent assays may be performed for testing of anti-hIL-21 antibodies, such as Example 10 of WO2013/164021 that utilizes PBMC's isolated from healthy human volunteers. Further information on ability to inhibit B-cell maturation may be obtained as described in Example 6 and 12 of WO2012/098113.
# Mouse B cells are purified from spleens harvested from 6-8 weeks old wild-type C57BL/6 mice. Single cell splenocytes are prepared by forcing the organ through a 70 μm cell strainer into PBS. B cells were purified by anti-B220 positive selection by magnetic beads, using magnetic beads and an AutoMACS cell separator (Miltenyi Biotec) according to manufacturer's protocol.
# Cells are stimulated in vitro with: a) soluble anti-IgM (1 μg/mL), b) soluble anti-CD40 (1 μg/mL) and c) mIL-21 (25, 50, 100 ng/mL). 10^5 purified B cells were added per well in a 96-well-plate and stimulated for 72 h at 37° C. with soluble IgM (1 μg/mL), soluble anti-CD40 IgM (1 μg/mL) and rmIL-21 (100 ng/mL) in the presence of an anti-IL-21 antibody or an isotype control antibody. For the last 18 h of incubation 3H-thymidine is added to each well and thymidine-incorporation (proliferation) was measured on a Top Counter liquid scintilator (Perkin Elmer)
# [1] = tested on: pancreatic tissue (islets, insulitis) of NOD mice; experiment: Histological examination of pancreatic tissue of NOD mice (H&E, CD8/CD4 and insulin staining); type: in vivo, mouse
# Method: Histological examination: The histological analyses were performed on pancreatic tissue from a subset of mice from each group. Sections were stained with Hematoxylin and eosin (H&E) to assess insulitis and immunofluorescent staining with either CD8 and insulin or CD4 and insulin to assess insulitis and also characterize cell types within infiltrates.
molecule,measurement,setting,value
"Anti-IL-21: Mouse surrogate anti-IL-21 antibody, mIgG1/kappa isotype, VL SEQ ID NO:26 and VH SEQ ID NO:27, raised against recombinant mouse IL-21 (antibody, V domains shown) VH: MNFGPSLIFLVLILKGVQCEVQLVESGGGLVKPGGSLKLSCAASGFTFNRYSMSWVRQSPEKRLEWVAEISVGGSYTQYVDIVTGRFTISRDNAKNTLYLEMSSLRSEDTAMYYCARLYYSGSGDSYYYAMDYWGQGTSVTVSS VL: MDFQVQIFSFLLISASVILSRGQTVLIQSPAIMSASPGEKVTMTCSASSSVSYMHWYQQKSGTSPKRWIYDTSKLASGVPARFSGSGSGTSYSLTISSMEAEDAATYYCQQWNSNPPTFGGGTKLEMK",Inhibition of mIL-21-driven B-cell proliferation (in words),mIL-21,capable of inhibiting B-cell proliferation in a concentration dependent manner
same,Cellular infiltration of pancreas (in words),[1]; subset of mice from each group,decreased extent of infiltration
same,Insulitis (in words),[1]; surviving mice,reduced
